For data set [1], the system named is methicillin resistant Staphylococcus aureus strains (MRSA). Briefly: PlySs2 in vitro growth reduction and killing. The format is cell-based. On the procedure:
(§1) Readings (OD600) were taken for each well in a spectrophotometer every minute over an hour. The OD density indicates the amount of bacterial cell growth in the microtiter well.
(§2) This activity test was first determined for the pathogenic S. suis strain 7997 with various concentrations of PlySs2 (FIG. 15A). Specific activity of purified PlySs2 lysin was also assessed in vitro against S. suis strain S735 (FIG. 15B). […] Additional results are tabulated below in TABLE 1.

Data set [2] concerns cultures from the oral cavities of rats. Briefly: Oral cavity microbiota study, clearing zones on lawns. The format is cell-based. The following applies: 6 cultures, 10 μL drops on BHI agar; the cleared culture confirmed as S. aureus.
The test system of data set [3] is S. suis strain 7997. Briefly: PlySs2 biochemical characterization, OD600 turbidity.
The test system of data set [4] is S. aureus MW2 and 8325. Kind of data set: Assessment of resistance, incrementally increasing concentrations. The format is cell-based. As to conditions: concentration doubled daily up to 4× MIC over an 8-day period.
Data set [5] has as its system S. suis strain 7997. Kind of data set: PlySs2 lytic activity at various concentrations, OD600. The format is cell-based, Streptococcus suis. On the procedure:
FIGS. 15A and 15B (A) PlySs2 has acute lytic activity against S. suis strain 7997 at, or above 8 ug/mL. (B) Activity of PlySs2 assessed in vitro against S. suis strain 5735.
as §1, §2

Data set [6] concerns S. suis strain 7997. Briefly: PlySs2 storage stability, killing effectiveness. The format is physicochemical, Streptococcus suis. How it is done:
FIG. 9. The stability of purified PlySS2 was determined by evaluating killing effectiveness against strain 7997 after storage at 37° C. for up to 48 hours in buffer.
FIG. 10. Killing effectiveness, assessed by OD600 growth of strain 7997 upon treatment with PlySs2 lysin after lysin storage at −80° C. for up to 7 months in buffer.
The stability of purified PlySs2 lysin was determined upon maintenance at 37° C. for up to 48 hours in buffer. The PlySs2 lysin is >90% stable up to 24 hours and maintains at least 50% activity after 48 hours.
Stability of the PlySS2 lysin was evaluated on freezer storage at −80° C. The PlySs2 lysin retains essentially 100% activity on storage in buffer for up to at least 7 months at −80° C. (FIG. 10).

Data set [7] deals with vancomycin intermediate sensitivity Staphylococcus aureus (VISA). Kind of data set: PlySs2 in vitro test, standard MIC analysis. The format is cell-based. The following applies: comparable in vitro tests (FIG. 18). On the procedure: (§3) FIG. 18. PlySS2 was tested by standard MIC analysis for its ability to kill strains of staphylococci. Included in the testing were resistant staphylococci such as Vancomycin resistant (VRSA), Vancomycin intermediate (VISA) and methicillin resistant (MRSA) staphylococci. The three VRSA strains tested represent half of all known isolates.

In data set [8] the test system is vancomycin resistant Staphylococcus aureus (VRSA). Kind of data set: PlySs2 in vitro test, standard MIC analysis. The format is cell-based. The following applies: comparable in vitro tests (FIG. 18). On the procedure:
as §3

The subject of data set [9] is purified S. suis peptidoglycan. Briefly: PlySs2 bond specificity, mass spectroscopy of digest. The format is biochemical, Streptococcus suis. As to conditions: overnight at 37° C. On the procedure:
Investigations to determine the bond catalyzed by PlySs2 lysin have been undertaken. PlySs2 was incubated with purified S. suis peptidoglycan stripped of lipotechoic acid and carbohydrates overnight at 37° C. and the product submitted for mass spectroscopy.

The text below walks through data of US20140179594A1, “STREPTOCOCCUS BACTERIOPHAGE LYSINS FOR TREATMENT OF GRAM POSITIVE BACTERIA IN COMPANION ANIMALS AND LIVESTOCK” (priority 2011, published 2014).

B1: PlySs2: S. suis prophage lysin from strain 89/1591, amino acid sequence SEQ ID NO:3 (protein, listed as Streptococcus suis)
chain: MTTVNEALNNVRAQVGSGVSVGNGECYALASWYERMISPDATVGLGAGVGWVSGAIGDTISAKNIGSSYNWQANGWTVSTSGPFKAGQIVTLGATPGNPYGHVVIVEAVDGDRLTILEQNYGGKRYPVRNYYSAASYRQQVVHYITPPGTVAQSAPNLAGSRSYRETGTMTVTVDALNVRRAPNTSGEIVAVYKRGESFDYDTVIIDVNGYVWVSYIGGSGKRNYVATGATKDGKRFGNAWGTFK
In the case of B1, in data set [1], the “activity against MRSA strains” value was “reduction in growth and killing”. In [2], the “clearing zone around PlySs2 drops on lawns of rat oral cavity cultures” value is given as “only appeared on one culture”. The “NaCl concentration of greatest activity” value in [3] (S. suis strain 7997) was determined as 0 mM. In addition, the “pH up to which acute activity is shown” value in data set [3] (S. suis strain 7997, Bis-tris propane (BTP) buffer) is at most 9.7. Besides, the “pH of strongest activity (optimal pH)” value in data set [3] (S. suis strain 7997, phosphate/citrate buffer) is reported as 8.0. The “development of resistance (4-fold increase in MIC)” value in data set [4] is “Neither S. aureus strain developed resistance”. Moreover, the “concentration with acute lytic activity” value in [5] is at least 8 µg/mL. Further, the activity maintained entry in data set [6] (37° C. in buffer, after 48 hours) is “at least 50%”. Further, the “stability of purified lysin” value in data set [6] (37° C. in buffer, up to 24 hours) is above 90%. In addition, the “activity retained on freezer storage” value in [6] (−80° C. in buffer, up to at least 7 months) is recorded as around 100%. The “effectiveness against VISA strains” value in data set [7] is “similarly effective”. Further, the “effectiveness against VRSA strains” value in data set [8] is “similarly effective”. Also, the “bond catalyzed (cleavage type)” value in [9] is listed as “N-acetylmuramoyl,-L-alanine amidase”.
